The target of the assay is Human TNF-α (R&D Systems) (human, UniProt P01375 77-233, labeled with Alexa Fluor 647 in the FACS assays). The experiment in a line: Biacore. A general note: SPR reads the build-up and loss of mass on a sensor chip optically.

Results on two molecules are retold here after patent US20140227251A1 (published 2014).

Numbering of substitutions follows the chain as printed. Names may count otherwise.

Human TNF-α (R&D Systems), sequence (P01375 77-233): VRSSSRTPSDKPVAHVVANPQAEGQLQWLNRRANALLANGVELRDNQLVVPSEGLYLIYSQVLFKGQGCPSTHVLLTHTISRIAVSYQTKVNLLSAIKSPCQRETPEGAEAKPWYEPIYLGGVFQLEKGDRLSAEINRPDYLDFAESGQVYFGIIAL

B1: D2E7 combination variant Y32K/SS-R30I (antibody, V domains shown)
VH: not shown
VL: DIQMTQSPSSLSASVGDRVTITCRASQSIINYLSWYQQKPGKAPKLLIYAASTLQSGVPSRFSGSGSGTDFTLTISSLQPEDVATYYCQRYNRAPYTFGQGTKVEIK
One may read the Kd as the concentration at which binding is half-saturated. B1 registered a Kd of 0.149 nM.

B2: D2E7 combination variant Y32K/SS-R30T (antibody, V domains shown)
VH: not shown
VL: B1 VL with I30T
Regarding B2, the Kd worked out at 0.13 nM.
